For one substance, value of the horizontal bar in the flow cytometric histogram (Protein L staining) results are on record in US20180346544A1.

In this experiment the target is CD276.MG.BB.z CAR (SEQ ID NO: 12). In words: flow cytometry, Protein L staining of T cells cultured with CD276.MG.BB.z vector supernatant; the mock-transduced panel gives 2.56. Background: A flow cytometer gives signals particle by particle.
CD276.MG.BB.z CAR (SEQ ID NO: 12), sequence (chain, as listed by the source, form in doubt): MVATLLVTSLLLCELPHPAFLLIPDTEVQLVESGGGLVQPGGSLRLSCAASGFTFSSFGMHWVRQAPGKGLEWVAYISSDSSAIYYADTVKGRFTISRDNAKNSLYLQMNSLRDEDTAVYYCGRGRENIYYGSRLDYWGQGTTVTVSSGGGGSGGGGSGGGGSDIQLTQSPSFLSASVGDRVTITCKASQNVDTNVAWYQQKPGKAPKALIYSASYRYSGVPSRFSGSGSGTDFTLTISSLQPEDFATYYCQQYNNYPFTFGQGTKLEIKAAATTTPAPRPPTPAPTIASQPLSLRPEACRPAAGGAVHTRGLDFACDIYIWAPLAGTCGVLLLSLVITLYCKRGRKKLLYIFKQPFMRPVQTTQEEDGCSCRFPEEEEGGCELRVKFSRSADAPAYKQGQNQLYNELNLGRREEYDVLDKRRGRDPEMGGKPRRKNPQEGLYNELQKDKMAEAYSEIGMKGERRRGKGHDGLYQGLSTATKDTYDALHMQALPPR

For the substance Protein L, the value of the horizontal bar in the flow cytometric histogram (Protein L staining) was 54.7.
